Numbering of substitutions follows the chain as printed.
T1: human CD24 (human, UniProt P25063 27-59, heavily glycosylated, GPI-anchored (as described in the background))
T1 construct: whole, on cells; Target of all cell-based FACS assays; also called hCD24; Cluster of differentiation 24
T1 chain (looked up): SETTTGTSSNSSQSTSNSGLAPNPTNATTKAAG

B1: 81A1F8 (antibody, V domains shown)
VH: EVQLQQSGPELVKPGASVKISCKATGYLFTGYYMNWVKQSPEKSLEWIGEINPNTGDTNNNQKFKAKATMTVDRSSSTAYMQLKRLTSEDSAVYYCVRRDYGTSLDYWGQGTTLTVSS
VL: DVQITQSPSYLAASPGETITINCRASKSINKYLAWYQEKPGKTNKLLIHSGSTLQSGIPSRFSGSRSGTDFTLTISNLEPEDFAMYYCQQHNEYPITFGAGTKLELK
notes: mouse monoclonal antibody
B2: 73H5-1G2 (antibody, V domains shown)
VH: QVQLKQSGPGLVQPSQSLSITCTVSGFSLTNYGVHWIRQSPGKGLEWLGVIWRGGSTDYNAAFMSRLSITKDNSKSQVFFQMNSLQAADTAIYYCANNYGYDCFAYWGQGTLVTVSA
VL: B1 VL with N30I, H49Y, R66G, S76T, N77S, I96L, K103R
notes: mouse monoclonal antibody
B3: 100F2E3 (antibody, V domains shown)
VH: QVQLQQPGAELVRPGSSVKLSCKTSDYTFTSYWMDWVKQRPGQGLEWIGNIYPSDSKTHSNQKFRDKATLTVDKSSSTAYMQLNSLTSEDSAVYYCARRGGYYGYAMDYWGQGTSVTVSS
VL: DIVMTQSPSSLSVSAGEKVTMSCKSSQSLLNSGNQDNYLAWYQQKPGQPPKLLIYGASIRESGVPDRFTGSGSGTDFTLTISSVQAEDLAVYYCQNDHSYPYTFGGGTKLEIK
notes: mouse monoclonal antibody
B4: 56A7E3 (antibody, V domains shown)
VH: EVQLQQSGPELVKPGASVKIPCKASGYTFTAYNMDWVKQSHGMSLEWIGDINPINGGTIYNQNFEGKATLTVDKSSSTAYLELRSLTSEDTAVYYCARRGSYYYGSSHYALDFWGQGTSVSVSS
VL: DIQMTQITSSLSASLGDRVTITCRASQDISNYLNWYQQKPDGTVKLLIYYTSRLLSGVPSRFSGSGSGTDYSLTISNLEQEDIATYFCQQDHTLPRTFGGGTKLEIR
notes: mouse monoclonal antibody
B5: 58F10-1F6 (antibody, V domains shown)
VH: EVQLRQSGPELVKPGAAVKISCKASGYSFTGYHMNWVKQSPEKSLEWIGEINPITSGITYNQIFKAKATLTVDKSSSTAYLQLKSLTSEDSAVYYCTRRDYGTSLDYWGQGTTLTVSS
VL: B4 VL
notes: mouse monoclonal antibody
B6: 71A4F12 (antibody, V domains shown)
VH: B4 VH with I54N, G57D, I59V, E65K, L81M
VL: B4 VL with D17N, T22S, S30R, H92N, T93S, K103R
notes: mouse monoclonal antibody

Target: T1, human CD24
Experiment: FACS, 5637 cells
Protocol: (§1) Screening & Expansion: The subcloning plates were screened by Acumen assay and the subclones with good binding ability were expanded to 24-wells for confirmation tests. The specificity and cross-reactivity of these subclones were confirmed with FACs analysis. […] Fluorescent dye-conjugated secondary antibody was used to detect the binding of the primary antibody with the cells. Median fluorescence intensity (MFI) was measured by FACs analysis.

| Binder | FACS MFI |
| --- | --- |
| B1 | 22200 |
| B2 | 6360 |
| B3 | 22100 |
| B4 | 18500 |
| B5 | 34200 |
| B6 | 18600 |

Target: T1, human CD24
Experiment: FACS, MCF7 cells
Protocol: as §1

| Binder | FACS MFI |
| --- | --- |
| B1 | 11500 |
| B2 | 373 |
| B3 | 7160 |
| B4 | 9190 |
| B5 | 17400 |
| B6 | 2420 |

Target: T1, human CD24
Experiment: FACS, 5637 cells
Remark: another data set of the same source
Protocol: (§2) Sequences of some of antibodies from Table 1 were selected to generate and produce human IgG4 chimeric antibodies. […] The protocol for FACs analysis is described as follows: [0536] a. Digested cells using TrypLE™ Express Enzyme (IX); Centrifuged the harvested cells at 400 g for 5 min and discarding the supernatant. [0537] b. Washed the cells 2 times with cold FACS buffer by centrifuging at 400 g for 5 min and discarding the supernatant. [0538] c. […] Incubate at […] for 1 h. [0539] d. Washed the cells twice by using the condition in step b. Resuspended the cells with 100 μl/well diluted 2nd antibody, incubated at 4 degree for 1 h in the dark. [0540] e. Washed the cells twice by using the condition in step b. Resuspended the cells with 100 μl/well cold FACS buffer. Kept the cells in dark for FACS analysis.

| Binder | EC50 [nM] | Max MFI |
| --- | --- | --- |
| B1 | 3.31 |  |
| B2 | 24.6 | 7440 |
| B3 | 9.47 |  |
| B4 | 31.6 |  |
| B5 | 22.4 |  |
| B6 | 39.7 |  |

Target: T1, human CD24
Experiment: FACS, MDA-MB-468 cells
Protocol: as §2

| Binder | EC50 [nM] | FACS MFI |
| --- | --- | --- |
| B1 | 5.23 | 24900 |
| B2 | 28 | 6400 |
| B3 | 19.6 | 44000 |
| B4 | 16.7 | 15300 |
| B5 | 38.9 | 49800 |
| B6 | 11.7 | 32500 |

Target: T1, human CD24
Experiment: FACS, A549 cells
Protocol: as §2

| Binder | EC50 [nM] | Max MFI |
| --- | --- | --- |
| B1 | 2.37 | 8660 |
| B2 | 36 | 5700 |
| B3 | 6.58 | 8670 |
| B4 | 92.4 | 3320 |
| B5 | 12.6 | 12600 |
| B6 | 1.97 | 4410 |

Target: T1, human CD24
Experiment: FACS, CHOK1-hCD24 cells
Protocol: as §2

| Binder | EC50 [nM] | Max MFI |
| --- | --- | --- |
| B1 | 1.52 | 45900 |
| B2 | 23.8 | 19900 |
| B3 | 1.71 | 22300 |
| B4 | 4.85 | 36700 |
| B5 | 9.7 | 28100 |
| B6 | 1.72 | 28800 |

Target: T1, human CD24
Experiment: FACS, 293F-hCD24 cells
Protocol: as §2

| Binder | EC50 [nM] | Max MFI |
| --- | --- | --- |
| B1 | 1.7 | 10300 |
| B2 | 16.2 | 20100 |
| B3 | 11.4 | 44100 |
| B4 | 7.52 | 26400 |
| B5 | 24.1 | 58200 |
| B6 | 6.74 | 39400 |

Target: T1, human CD24
Experiment: FACS, HT-29 cells
Protocol: as §2

| Binder | EC50 [nM] | Max MFI |
| --- | --- | --- |
| B1 | 2.93 | 3050 |
| B2 | 40 | 4820 |
| B3 | 9.55 | 2420 |
| B4 | 18.1 | 1460 |
| B5 | 10.8 | 4900 |
| B6 | 5.46 | 4780 |

Target: T1, human CD24
Experiment: FACS, H1975 cells
Protocol: as §1

| Binder | FACS MFI |
| --- | --- |
| B1 | 10600 |
| B2 | 2200 |
| B3 | 6900 |
| B4 | 2190 |
| B5 | 17500 |
| B6 | 7200 |

Target: T1, human CD24
Experiment: FACS, Nalm1 cells
Protocol: as §2

| Binder | EC50 [nM] | Max MFI |
| --- | --- | --- |
| B1 | 1.9 | 24800 |
| B2 | 33.8 | 58500 |
| B3 | 8.88 | 58800 |
| B4 | 20.9 | 74600 |
| B5 | 8.72 | 60300 |
| B6 | 6.28 | 45000 |

Target: T1, human CD24
Experiment: FACS, Nalm1 cells
Remark: another data set of the same source
Protocol: as §1

| Binder | FACS MFI |
| --- | --- |
| B1 | 24800 |
| B2 | 58500 |
| B3 | 58800 |
| B4 | 74600 |
| B5 | 20900 |
| B6 | 45000 |

Target: T1, human CD24
Experiment: FACS, H1975 cells
Remark: another data set of the same source
Protocol: as §2

| Binder | EC50 [nM] |
| --- | --- |
| B1 | 2.03 |
| B2 | 31.3 |
| B3 | 10 |
| B4 | 93.1 |
| B5 | 53.1 |
| B6 | 71.9 |

Target: T1, human CD24
Experiment: FACS, 293F-hCD24 cells
Remark: another data set of the same source
Protocol: as §1

| Binder | FACS MFI |
| --- | --- |
| B1 | 10300 |
| B2 | 20100 |
| B3 | 44100 |
| B4 | 26400 |
| B5 | 7420 |
| B6 | 7350 |

Target: T1, human CD24
Experiment: FACS, MCF7 cells
Remark: another data set of the same source
Protocol: as §2

| Binder | EC50 [nM] | Max MFI |
| --- | --- | --- |
| B1 | 3 |  |
| B2 | 45.9 |  |
| B3 | 8.08 |  |
| B4 | 81.7 |  |
| B5 | 43.4 |  |
| B6 | 121 | 12600 |
